This is an account of results in PMC8508734 (International Journal of Molecular Sciences, 2021).

For experiment [1], the target named is T1, histamine H3 receptor (H3R) (Rattus norvegicus, UniProt Q9QYN8).
T1 construct: gene Hrh3; long isoform H3(445)R, C-terminal RLuc / YFP fusions
Nature of the experiment: BRET between H3R-RLuc and H3R-YFP in HEK […] cells; also […]GTPγS binding (inverse agonist). The format is cell-based.

Experiment [2] has as its target T2, H3R-RLuc (rat histamine H3 receptor, long isoform H3(445)R, fused to Renilla Luciferase) (rat, UniProt Q9QYN8 1-445).
T2 construct: histamine H3 receptor, rat, long isoform H3(445)R (445 residues), cDNA amplified without its stop codon and cloned into pRL-CMV-RLuc; The same construct was expressed in HEK 293 cells and in rat cortical neurons; the assay tells which; also called H3R-Luc; source: rat cortical neurons in primary culture, transfected (lipofectamine 2000); not shown: Renilla Luciferase (RLuc), C-terminal, kept
Nature of the experiment: FRET or BRET; BRET donor saturation curves in intact living HEK 293 cells, constant RLuc fusion and increasing YFP fusion, 48 h after transfection, HBSS, 25 °C, coelenterazine H 5 µM; without or with imetit or thioperamide (100 nM). The following applies: partners not purified.

For the molecule `S=C(NC1CCCCC1)N1CCC(c2cnc[nH]2)CC1` [thioperamide], the EC50 in experiment [1] came to 2 ± 1 nM.

B1: H3R-YFP (rat histamine H3 receptor, long isoform H3(445)R, fused to Yellow Fluorescent Protein) (receptor, UniProt Q9QYN8 1-445, looked up)
chain: MERAPPDGLMNASGTLAGEAAAAGGARGFSAAWTAVLAALMALLIVATVLGNALVMLAFVADSSLRTQNNFFLLNLAISDFLVGAFCIPLYVPYVLTGRWTFGRGLCKLWLVVDYLLCASSVFNIVLISYDRFLSVTRAVSYRAQQGDTRRAVRKMALVWVLAFLLYGPAILSWEYLSGGSSIPEGHCYAEFFYNWYFLITASTLEFFTPFLSVTFFNLSIYLNIQRRTRLRLDGGREAGPEPPPDAQPSPPPAPPSCWGCWPKGHGEAMPLHRYGVGEAGPGVEAGEAALGGGSGGGAAASPTSSSGSSSRGTERPRSLKRGSKPSASSASLEKRMKMVSQSITQRFRLSRDKKVAKSLAIIVSIFGLCWAPYTLLMIIRAACHGRCIPDYWYETSFWLLWANSAVNPVLYPLCHYSFRRAFTKLLCPQKLKVQPHGSLEQCWK
notes: histamine H3 receptor, rat, long isoform H3(445)R (445 residues), cDNA amplified without its stop codon and cloned into pEYFP-N1; The same construct was expressed in HEK 293 cells and in rat cortical neurons; the assay tells which; also called C-terminal YFP-fused H3R; source: rat cortical neurons in primary culture, transfected (lipofectamine 2000); not shown: YFP, C-terminal, kept
Turning to B1, in experiment [2], the “BRET50 (basal)” value was determined as 1.24 acceptor/donor ratio, the “BRET50 (with imetit 100 nM)” value was 1.19 acceptor/donor ratio and the “BRET50 (with thioperamide 100 nM)” value turned out to be 1.56 acceptor/donor ratio.
